In paper PMC4877046, “TrmBL2 from Pyrococcus furiosus Interacts Both with Double-Stranded and Single-Stranded DNA” (PLoS ONE, 2016):

What was measured:
[1] = molecular target: T1, TrmBL2 (Pyrococcus furiosus, UniProt Q8U3H1 1-264); assay: magnetic tweezers (persistence length); details: half-coverage, Hill coefficient 3.0 +/- 0.33; EMSA: PBS, 10 nM DNA, 1 h, room temperature, 8% PAGE in PBS; magnetic tweezers: PBS pH 7.4, 5 mM NaN3, room temperature
T1 sequence: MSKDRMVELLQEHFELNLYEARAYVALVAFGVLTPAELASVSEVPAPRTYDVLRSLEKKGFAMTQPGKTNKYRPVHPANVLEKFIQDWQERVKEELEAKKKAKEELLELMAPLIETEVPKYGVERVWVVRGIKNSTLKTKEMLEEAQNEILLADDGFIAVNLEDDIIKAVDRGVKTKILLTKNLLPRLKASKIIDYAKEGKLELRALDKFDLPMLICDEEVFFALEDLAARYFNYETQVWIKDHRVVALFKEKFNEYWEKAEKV

[2] = molecular target: the molecule itself; assay: SEC; gel filtration on a 60 ml Superdex 200 column, 40 mM HEPES pH 7.5, 150 mM NaCl; last step of the purification
[3] = molecular target: T1, TrmBL2; assay: EMSA; apparent Kd, Hill fit, Hill coefficient 2.9 +/- 0.4; Fig 6 legend gives 2.0 uM; EMSA: PBS, 10 nM DNA, 1 h, room temperature, 8% PAGE in PBS; magnetic tweezers: PBS pH 7.4, 5 mM NaN3, room temperature; details: protein: recombinant; chain copies: 2; label: 5'-Cy5
[4] = molecular target: T1, TrmBL2; assay: EMSA; apparent Kd, Hill fit, Hill coefficient 4.4 +/- 0.6; Fig 6 legend gives 1.0 uM; EMSA: PBS, 10 nM DNA, 1 h, room temperature, 8% PAGE in PBS; magnetic tweezers: PBS pH 7.4, 5 mM NaN3, room temperature; details: protein: recombinant; chain copies: 2; label: 5'-Cy5 on S1; blunt

For dsDNA tether for magnetic tweezers, the K half [1] was 300 nM.

B1: TrmBL2 from Pyrococcus furiosus (natural protein, UniProt Q8U3H1 1-264, looked up)
chain: T1 sequence
notes: TrmBL2 (30.6 kDa) from Pyrococcus furiosus; This E. coli material is dimeric by gel filtration; also called archaeal "TrmB-like" protein TrmBL2; source: E.coli BL21 (DE3), purified (heating to 80°C, Q-Sepharose, Superdex 200)
With B1 the “stoichiometry N” value [2] was 2.

B2: 60mer ssDNA (ssDNA)
DNA: GATATAATATACCTATATCAATGGCCTCCCACGCATAAGCGCAGATACGTTCTGAGGGAA
With B2 the Kd [3] was 2.1 ± 0.1 µM.

B3: 60mer dsDNA (dsDNA)
DNA 1: B2 DNA
DNA 2: TTCCCTCAGAACGTATCTGCGCTTATGCGTGGGAGGCCATTGATATAGGTATATTATATC
B3 showed a Kd [4] of 1.07 ± 0.03 µM.
